Earlier results as cited in paper PMC10320286.

Biological target: IL-18BP (Homo sapiens) (UniProt O95998)
Sequence (O95998 31-194): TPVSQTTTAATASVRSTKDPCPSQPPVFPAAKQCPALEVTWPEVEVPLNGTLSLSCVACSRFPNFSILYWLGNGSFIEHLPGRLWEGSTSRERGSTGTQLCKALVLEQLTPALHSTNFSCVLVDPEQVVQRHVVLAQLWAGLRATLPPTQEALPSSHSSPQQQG

Sequence of IL-18 (Q14116 37-193): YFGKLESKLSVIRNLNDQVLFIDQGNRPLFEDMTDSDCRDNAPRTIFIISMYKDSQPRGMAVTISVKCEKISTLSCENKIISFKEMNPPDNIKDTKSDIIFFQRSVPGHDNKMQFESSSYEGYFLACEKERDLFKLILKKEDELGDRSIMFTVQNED

Q: For IL-18 (from UniProt Q14116), which Kd is on record?
A: Its Kd is 38 pM.
